Data reported in publication PMC4695125.

Experiments:
[1] = biological target: RAGE (receptor for advanced glycation end products), endogenous in MDA-MB-231 cells (human (endogenous in MDA-MB-231)) (UniProt Q15109)
[2] = biological target: RAGE (receptor for advanced glycation end products), endogenous in MDA-MB-231 cells (human (endogenous in MDA-MB-231)) (UniProt Q15109); remark: listed apart in the source

UniProt Q15109, sequence (Q15109 23-404): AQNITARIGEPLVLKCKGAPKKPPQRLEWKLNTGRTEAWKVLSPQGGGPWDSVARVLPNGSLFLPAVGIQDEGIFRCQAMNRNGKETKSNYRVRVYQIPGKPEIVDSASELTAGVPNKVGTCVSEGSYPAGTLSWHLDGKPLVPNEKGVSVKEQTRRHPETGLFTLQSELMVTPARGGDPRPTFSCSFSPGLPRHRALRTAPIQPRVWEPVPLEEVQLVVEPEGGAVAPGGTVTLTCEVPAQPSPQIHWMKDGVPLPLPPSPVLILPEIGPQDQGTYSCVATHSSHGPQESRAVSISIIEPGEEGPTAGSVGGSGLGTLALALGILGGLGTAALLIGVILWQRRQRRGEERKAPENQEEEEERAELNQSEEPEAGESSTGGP

cytoplasmic histone-associated DNA fragmentation in ASA-pretreated MDA-MB-231 cells after removal of Ac-APE1/Ref-1 with an anti-APE1/Ref-1 antibody (2 ug) (% of the control level) [1] | phosphorylation of p38 MAPK at Tyr182 in MDA-MB-231 cells treated with 5 mM ASA (3 h to 24 h) [2] [%] | Substance | cell viability of ASA-pretreated MDA-MB-231 cells after removal of Ac-APE1/Ref-1 with an anti-APE1/Ref-1 antibody (2 ug) [1] [%]
33 | – | recombinant human acetylated APE1/Ref-1 (apurinic apyrimidinic endonuclease 1/redox factor-1) (from UniProt P27695 1-318) (natural protein) | 80
– | 62 | secreted acetylated APE1/Ref-1 from ASA/TSA-treated MDA-MB-231 cells (from UniProt P27695 1-318) (natural protein) | –
